Laboratory results published in US20240376208A1 (AFFIMED, published 2024).

T1: BCMA on MM.1S target cells (UniProt Q02223 1-184, limits assumed)
T1 sequence (looked up): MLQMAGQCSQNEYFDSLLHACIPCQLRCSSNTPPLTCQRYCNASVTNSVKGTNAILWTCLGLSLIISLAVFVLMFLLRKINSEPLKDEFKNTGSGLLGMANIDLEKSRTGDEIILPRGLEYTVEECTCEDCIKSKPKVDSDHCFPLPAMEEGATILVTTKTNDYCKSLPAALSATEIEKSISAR

B1: aBi-scDb-Fc_01 (bispecific antibody)
chain 1: SYVLTQPSSVSVAPGQTATISCGGHNIGSKNVHWYQQRPGQSPVLVIYQDNKRPSGIPERFSGSNSGNTATLTISGTQAMDEADYYCQVWDNYSVLFGGGTKLTVLGGSGGSQVQLVQSGAEVKKPGESLKVSCKASGYTFTSYYMHWVRQAPGQGLEWMGAIEPMYGSTSYAQKFQGRVTMTRDTSTSTVYMELSSLRSEDTAVYYCARGSAYYYDFADYWGQGTLVTVSSGGSGGSGGSGGSGGSGGSSYVLTQPSSVSVAPGQTATISCGGHNIGSKNVHWYQQRPGQSPVLVIYQDNKRPSGIPERFSGSNSGNTATLTISGTQAMDEADYYCQVWDNYSVLFGGGTKLTVLGGSGGSQVQLVQSGAEVKKPGESLKVSCKASGYTFTSYYMHWVRQAPGQGLEWMGAIEPMYGSTSYAQKFQGRVTMTRDTSTSTVYMELSSLRSEDTAVYYCARGSAYYYDFADYWGQGTLVTVSSGGGGSDKTHTCPPCPAPEFEGGPSVFLFPPKPKDTLMISRTPEVTCVVVAVSHEDPEVKFNWYVDGVEVHNAKTKPREEQYNSTYRVVSVLTVLHQDWLNGKEYKCKVSNKALPAPIEKTISKAKGQPREPQVYTLPPSREEMTKNQVSLTCLVKGFYPSDIAVEWESNGQPENNYKTTPPVLDSDGSFFLTSKLTVDKSRWQQGNVFSCSVMHEALHNHYTQKSLSLSPGAAAGSHHHHHH
chain 2: SYVLTQPSSVSVAPGQTATISCGGHNIGSKNVHWYQQRPGQSPVLVIYQDNKRPSGIPERFSGSNSGNTATLTISGTQAMDEADYYCQVWDNYSVLFGGGTKLTVLGGSGGSQVQLVQSGAEVKKPGESLKVSCKASGYTFTSYYMHWVRQAPGQGLEWMGAIEPMYGSTSYAQKFQGRVTMTRDTSTSTVYMELSSLRSEDTAVYYCARGSAYYYDFADYWGQGTLVTVSSGGSGGSGGSGGSGGSGGSSYVLTQPSSVSVAPGQTATISCGGHNIGSKNVHWYQQRPGQSPVLVIYQDNKRPSGIPERFSGSNSGNTATLTISGTQAMDEADYYCQVWDNYSVLFGGGTKLTVLGGSGGSQVQLVQSGAEVKKPGESLKVSCKASGYTFTSYYMHWVRQAPGQGLEWMGAIEPMYGSTSYAQKFQGRVTMTRDTSTSTVYMELSSLRSEDTAVYYCARGSAYYYDFADYWGQGTLVTVSSGGGGSDKTHTCPPCPAPEFEGGPSVFLFPPKPKDTLMISRTPEVTCVVVAVSHEDPEVKFNWYVDGVEVHNAKTKPREEQYNSTYRVVSVLTVLHQDWLNGKEYKCKVSNKALPAPIEKTISKAKGQPREPQVYTLPPSREEMTKNQVSLYCLVKGFYPSDIAVEWESNGQPENNYKTTPPVLDSDGSFFLYSKLTVDKSRWQQGNVFSCSVMHEALHNHYTQKSLSLSPGGGGGSGGGGSEVQLLESGGGLVQPGGSLRLSCAASGFTFSNYDMAWVRQAPGKGLEWVSSISTRGDITSYRDSVKGRFTISRDNSKNTLYLQMNSLRAEDTAVYYCARQDYYTDYMGFAYWGQGTLVTVSSGGGGSGGGGSGGGGSAIQMTQSPSSLSASVGDRVTITCRASEDIYNGLAWYQQKPGKAPKLLIYGASSLQDGVPSRFSGSGSGTEFTLTISSLQPEDEATYYCAGPHKYPLTFGGGTKVEIK
B2: aBi-scDb-Fc_03 (bispecific antibody)
chain 1: DKTHTCPPCPAPEFEGGPSVFLFPPKPKDTLMISRTPEVTCVVVAVSHEDPEVKFNWYVDGVEVHNAKTKPREEQYNSTYRVVSVLTVLHQDWLNGKEYKCKVSNKALPAPIEKTISKAKGQPREPQVYTLPPSREEMTKNQVSLTCLVKGFYPSDIAVEWESNGQPENNYKTTPPVLDSDGSFFLTSKLTVDKSRWQQGNVFSCSVMHEALHNHYTQKSLSLSPGGGGGSGGGGSSYVLTQPSSVSVAPGQTATISCGGHNIGSKNVHWYQQRPGQSPVLVIYQDNKRPSGIPERFSGSNSGNTATLTISGTQAMDEADYYCQVWDNYSVLFGGGTKLTVLGGSGGSQVQLVQSGAEVKKPGESLKVSCKASGYTFTSYYMHWVRQAPGQGLEWMGAIEPMYGSTSYAQKFQGRVTMTRDTSTSTVYMELSSLRSEDTAVYYCARGSAYYYDFADYWGQGTLVTVSSGGSGGSGGSGGSGGSGGSSYVLTQPSSVSVAPGQTATISCGGHNIGSKNVHWYQQRPGQSPVLVIYQDNKRPSGIPERFSGSNSGNTATLTISGTQAMDEADYYCQVWDNYSVLFGGGTKLTVLGGSGGSQVQLVQSGAEVKKPGESLKVSCKASGYTFTSYYMHWVRQAPGQGLEWMGAIEPMYGSTSYAQKFQGRVTMTRDTSTSTVYMELSSLRSEDTAVYYCARGSAYYYDFADYWGQGTLVTVSSAAAGSHHHHHH
chain 2: SYVLTQPSSVSVAPGQTATISCGGHNIGSKNVHWYQQRPGQSPVLVIYQDNKRPSGIPERFSGSNSGNTATLTISGTQAMDEADYYCQVWDNYSVLFGGGTKLTVLGGSGGSQVQLVQSGAEVKKPGESLKVSCKASGYTFTSYYMHWVRQAPGQGLEWMGAIEPMYGSTSYAQKFQGRVTMTRDTSTSTVYMELSSLRSEDTAVYYCARGSAYYYDFADYWGQGTLVTVSSGGSGGSGGSGGSGGSGGSSYVLTQPSSVSVAPGQTATISCGGHNIGSKNVHWYQQRPGQSPVLVIYQDNKRPSGIPERFSGSNSGNTATLTISGTQAMDEADYYCQVWDNYSVLFGGGTKLTVLGGSGGSQVQLVQSGAEVKKPGESLKVSCKASGYTFTSYYMHWVRQAPGQGLEWMGAIEPMYGSTSYAQKFQGRVTMTRDTSTSTVYMELSSLRSEDTAVYYCARGSAYYYDFADYWGQGTLVTVSSGGGGSDKTHTCPPCPAPEFEGGPSVFLFPPKPKDTLMISRTPEVTCVVVAVSHEDPEVKFNWYVDGVEVHNAKTKPREEQYNSTYRVVSVLTVLHQDWLNGKEYKCKVSNKALPAPIEKTISKAKGQPREPQVYTLPPSREEMTKNQVSLYCLVKGFYPSDIAVEWESNGQPENNYKTTPPVLDSDGSFFLYSKLTVDKSRWQQGNVFSCSVMHEALHNHYTQKSLSLSPGGGGGSGGGGSEVQLLESGGGLVQPGGSLRLSCAASGFTFSNYDMAWVRQAPGKGLEWVSSISTRGDITSYRDSVKGRFTISRDNSKNTLYLQMNSLRAEDTAVYYCARQDYYTDYMGFAYWGQGTLVTVSSGGGGSGGGGSGGGGSAIQMTQSPSSLSASVGDRVTITCRASEDIYNGLAWYQQKPGKAPKLLIYGASSLQDGVPSRFSGSGSGTEFTLTISSLQPEDEATYYCAGPHKYPLTFGGGTKVEIK
B3: scFv-IgAb_167 (bispecific antibody)
heavy: QVQLQESGPGLVKPSETLSLTCTVSGGSVSSGSYYWSWIRQPPGKGLEWIGYIYYSGSTNYNPSLKSRVTISVDTSKNQFSLKLSSVTAADTAVYYCARNPISIPAFDIWGQGTMVTVSSASTKGPSVFPLAPSSKSTSGGTAALGCLVKDYFPEPVTVSWNSGALTSGVHTFPAVLQSSGLYSLSSVVTVPSSSLGTQTYICNVNHKPSNTKVDKKVEPKSCDKTHTCPPCPAPEFEGGPSVFLFPPKPKDTLMISRTPEVTCVVVAVSHEDPEVKFNWYVDGVEVHNAKTKPREEQYNSTYRVVSVLTVLHQDWLNGKEYKCKVSNKALPAPIEKTISKAKGQPREPQVYTLPPSREEMTKNQVSLTCLVKGFYPSDIAVEWESNGQPENNYKTTPPVLDSDGSFFLYSKLTVDKSRWQQGNVFSCSVMHEALHNHYTQKSLSLSPGGGGGSGGGGSGGGGSGGGGSGGGGSGGGGSSYVLTQPSSVSVAPGQTARITCGGNNIGSKSVHWYQQKPGQAPVLVIYQDKKRPSGIPERFSGSNSGNTATLTISGTQAMDEADYYCQVWDDYIVLFGGGTKLTVLGGSGGSGGSGGSGGSGGSGGSQVQLVQSGAEVKKPGESLKVSCKASGYTFTNYYMQWVRQAPGQGLEWMGIINPSGGVTSYAQKFQGRVTMTRDTSTSTVYMELSSLRSEDTAVYYCARGSAYYYDFADYWGQGTLVTVSS
light: QPVLTQPPSVSVAPGKTARITCGGNNIGSKSVHWYQQKPGQAPVLVIYYDSDRPSGIPERFSGSNSGNTATLTISRVEAGDEADYYCQVWDTSSDHVLFGGGTKLTVLGQPKAAPSVTLFPPSSEELQANKATLVCLISDFYPGAVTVAWKADSSPVKAGVETTTPSKQSNNKYAASSYLSLTPEQWKSHRSYSCQVTHEGSTVEKTVAPTECS
B4: Bi-scDb-IgAb_06 (bispecific antibody)
heavy: QVQLQESGPGLVKPSETLSLTCTVSGGSVSSGSYYWSWIRQPPGKGLEWIGYIYYSGSTNYNPSLKSRVTISVDTSKNQFSLKLSSVTAADTAVYYCARNPISIPAFDIWGQGTMVTVSSASTKGPSVFPLAPSSKSTSGGTAALGCLVKDYFPEPVTVSWNSGALTSGVHTFPAVLQSSGLYSLSSVVTVPSSSLGTQTYICNVNHKPSNTKVDKKVEPKSCDKTHTCPPCPAPEFEGGPSVFLFPPKPKDTLMISRTPEVTCVVVAVSHEDPEVKFNWYVDGVEVHNAKTKPREEQYNSTYRVVSVLTVLHQDWLNGKEYKCKVSNKALPAPIEKTISKAKGQPREPQVYTLPPSREEMTKNQVSLTCLVKGFYPSDIAVEWESNGQPENNYKTTPPVLDSDGSFFLYSKLTVDKSRWQQGNVFSCSVMHEALHNHYTQKSLSLSPGGGGGSGGGGSSYVLTQPSSVSVAPGQTATISCGGHNIGSKNVHWYQQRPGQSPVLVIYQDNKRPSGIPERFSGSNSGNTATLTISGTQAMDEADYYCQVWDNYSVLFGGGTKLTVLGGSGGSQVQLVQSGAEVKKPGESLKVSCKASGYTFTSYYMHWVRQAPGQGLEWMGAIEPMYGSTSYAQKFQGRVTMTRDTSTSTVYMELSSLRSEDTAVYYCARGSAYYYDFADYWGQGTLVTVSSGGSGGSGGSGGSGGSGGSSYVLTQPSSVSVAPGQTATISCGGHNIGSKNVHWYQQRPGQSPVLVIYQDNKRPSGIPERFSGSNSGNTATLTISGTQAMDEADYYCQVWDNYSVLFGGGTKLTVLGGSGGSQVQLVQSGAEVKKPGESLKVSCKASGYTFTSYYMHWVRQAPGQGLEWMGAIEPMYGSTSYAQKFQGRVTMTRDTSTSTVYMELSSLRSEDTAVYYCARGSAYYYDFADYWGQGTLVTVSS
light: QPVLTQPPSVSVAPGKTARITCGGNNIGSKSVHWYQQKPGQAPVLVIYYDSDRPSGIPERFSGSNSGNTATLTISRVEAGDEADYYCQVWDTSSDHVLFGGGTKLTVLGQPKAAPSVTLFPPSSEELQANKATLVCLISDFYPGAVTVAWKADSSPVKAGVETTTPSKQSNNKYAASSYLSLTPEQWKSHRSYSCQVTHEGSTVEKTVAPTECS

Tests used:
Assay in all cases: cell-based or functional assay
[1] = molecular target: T1, BCMA on MM.1S target cells
[2] = molecular target: T2, EGFR on tumor target cells (MCF-7, Daudi, DK-MG, HCT-116) (UniProt P00533 25-1210, limits assumed)
[3] = molecular target: T2, EGFR on tumor target cells (MCF-7, …); remark: listed apart in the source
[4] = molecular target: CD16A on primary human NK cells (human, UniProt P08637 17-254)
Sequence of CD16A on primary human NK cells (P08637 17-254 limits assumed): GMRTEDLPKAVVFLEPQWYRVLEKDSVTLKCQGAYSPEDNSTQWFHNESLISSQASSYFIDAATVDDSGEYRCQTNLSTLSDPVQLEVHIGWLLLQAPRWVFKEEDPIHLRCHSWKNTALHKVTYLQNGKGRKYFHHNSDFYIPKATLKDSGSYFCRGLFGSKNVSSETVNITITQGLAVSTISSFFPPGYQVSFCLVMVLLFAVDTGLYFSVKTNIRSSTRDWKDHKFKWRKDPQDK

Binder | EC50 [pM], 4 h calcein-release cytotoxicity on BCMA+ MM.1S target cells, NK cells E:T 5:1 [1] [pM] | Emax [%], 4 h calcein-release cytotoxicity on BCMA+ MM.1S target cells, NK cells E:T 5:1 [1] [%] | EC50 [pM], 4 h calcein-release cytotoxicity on MCF-7 target cells, NK cells E:T 5:1 [2] [pM] | Emax [%], 4 h calcein-release cytotoxicity on MCF-7 target cells, NK cells E:T 5:1 [2] [%] | EC50 [pM], 4 h calcein-release cytotoxicity on Daudi target cells, NK cells E:T 5:1 [3] [pM] | Emax [%], 4 h calcein-release cytotoxicity on Daudi target cells, NK cells E:T 5:1 [3] [%] | Emax [%], 4 h calcein-release NK cell fratricide assay, E:T 1:1 [4] [%]
B1 | 1 | 46.4 |  |  |  |  | 
B2 | 2.4 | 51 |  |  |  |  | 
B3 |  |  | 8.8 | 17.9 | 46.8 | 8 | 2.8
B4 |  |  | 2.1 | 25 | 18.6 | 18.2 | 15
